For the experiment, the target named is human GITR on activated CD4 T cells (human) (UniProt Q9Y5U5). Put plainly: FACS binding to activated human CD4 T cells. (In general: A flow cytometer gives signals particle by particle.)
Chain of human GITR on activated CD4 T cells (human) (Q9Y5U5 26-241): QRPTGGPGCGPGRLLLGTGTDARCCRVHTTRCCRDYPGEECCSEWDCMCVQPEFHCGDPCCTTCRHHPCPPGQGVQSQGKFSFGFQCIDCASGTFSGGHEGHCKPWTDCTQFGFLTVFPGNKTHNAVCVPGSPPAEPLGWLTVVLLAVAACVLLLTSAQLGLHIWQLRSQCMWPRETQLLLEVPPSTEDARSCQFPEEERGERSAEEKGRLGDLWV

By EC50 is commonly meant the concentration at which the effect is half-maximal. Lower therefore signals greater potency. Regarding unrelated hIgG2, the concentration giving a half-maximal response (EC50) turned out to be 6.72 nM. The result for unrelated hIgG1 reads 132 nM.

Source of the values: patent US20200299400A1.
